Results published in article PMC5942779, “Identification of a peptide inhibitor for the histone methyltransferase WHSC1” (PLoS ONE, 2018).

What was measured:
WHSC1L1 1054–1285 = WHSC1L1 1054–1285 (UniProt O96028)
WHSC1 941–1240 = WHSC1 941–1240 (UniProt O96028)
Chain of WHSC1 941–1240 (O96028 941-1240): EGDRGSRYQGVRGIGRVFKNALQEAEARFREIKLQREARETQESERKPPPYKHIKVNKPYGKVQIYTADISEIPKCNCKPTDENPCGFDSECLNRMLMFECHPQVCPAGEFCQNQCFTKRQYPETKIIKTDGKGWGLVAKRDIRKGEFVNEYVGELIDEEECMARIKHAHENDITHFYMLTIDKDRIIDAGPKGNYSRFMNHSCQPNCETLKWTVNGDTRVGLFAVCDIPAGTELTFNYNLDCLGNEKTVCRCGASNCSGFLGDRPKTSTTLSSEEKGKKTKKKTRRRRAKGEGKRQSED

Chain of WHSC1L1 1054–1285 (O96028 1054-1285): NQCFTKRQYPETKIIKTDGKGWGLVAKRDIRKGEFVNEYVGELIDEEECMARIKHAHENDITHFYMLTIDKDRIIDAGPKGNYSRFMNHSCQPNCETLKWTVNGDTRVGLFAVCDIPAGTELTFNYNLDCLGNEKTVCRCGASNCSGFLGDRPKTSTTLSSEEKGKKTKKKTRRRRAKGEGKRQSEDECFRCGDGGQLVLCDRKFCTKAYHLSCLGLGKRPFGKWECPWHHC

## Ac-GVARI-NH2 [PTD3]
WHSC1L1 1054–1285
  Biochemical IC50: inhibition of 3H-methyl transfer from SAM to the biotinylated H4 peptide by WHSC1L1 1054–1285: > 1000 µM
WHSC1 941–1240
  Biochemical IC50: inhibition of 3H-methyl transfer from SAM to the biotinylated H4 peptide by WHSC1 941–1240: 640 µM
